Test results as given in patent US20210188971A1.

Target: TSHR on engineered CHO cells (UniProt P16473)
Experiment: flow cytometry on CHO cells engineered with TSHR, detected with anti-human IgG1 Fc-Alexa Fluor 488

B1: M22 Fabs (control of Example 16) (Fab, V domains shown)
VH: QVQLVQSGAEVKKPGESLKISCRGSGYRFTSYWINWVRQLPGKGLEWMGRIDPTDSYTNYSPSFKGHVTVSADKSINTAYLQWSSLKASDTGMYYCARLEPGYSSTWSVNWGQGTLVTVSS
VL: LTVLTQPPSVSGAPRQRVTISCSGNSSNIGNNAVNWYQQLPGKAPKLLIYYDDQLPSGVSDRFSGSRSGTSASLAIRGLQSEDEADYYCTSWDDSLDSQLFGGGTRLTVL
- concentration at which fluorescence intensity peaked: 30 µg/mL
